Columns and labels:
[1] = target: recombinant human BAFF-Fc (Sino Biological) (human) (UniProt Q9Y275); assay: cell-based or functional assay
[2] = target: recombinant mouse BAFF (R&D Systems) (mouse, UniProt Q9WU72 127-309); assay: cell-based or functional assay
[3] = target: T1, recombinant human BAFF-Fc (Sino Biological) (human, UniProt Q9Y275 134-285); assay: blocking ELISA: periplasmic extract + 1.14 nM BAFF-Fc on coated BAFF-R extracellular domain, anti-human Fc-HRP
T1 construct: Bought reagent; also called hBAFF; not shown: Fc moiety detected by anti-human Fc
Procedure: The ability of selected BAFF-specific VNARs to prevent the binding of BAFF to its receptor (BAFF-R) was tested in a blocking ELISA format. Briefly, selected clones were grown in 96 deep-well plates and the periplasmic fraction was extracted as described above. Nunc Maxisorp 96-well plates were coated at 1 μg/mL with the BAFF-R extracellular domain (Peprotech) and blocked in PBS-0.1% Tween+2.5% milk. The periplasmic fraction was also pre-blocked in PBS-0.1% Tween-20+2.5% milk in the presence of 1.14 nM BAFF-Fc (Sino Biological) before being exposed to the BAFF-R coated surface. After washing in PBS-0.1% Tween-20, BAFF bound to its receptor was detected via its Fc moiety using a peroxidase-conjugated anti-human Fc (Sigma). Absorbance at 450 nm was recorded using an Envision multiwell reader (Perkin Elmer) (FIG. 8) and clones reducing the amount of BAFF bound to its receptor by more than 50% were selected as specific blockers.

human BAFF (recombinant) [4] = target: T2, human BAFF (recombinant) (human, UniProt Q9Y275 134-285); assay: ELISA on coated human BAFF
T2 construct: also called hBAFF; recombinant BAFF (Sino biologicals)

human BAFF (recombinant) [5] = target: T2, human BAFF (recombinant); assay: ELISA on coated human BAFF (legend of FIG. 18; rounded form of 0.632 nM)
Procedure: Based on the results of Example 11, the A07 anti-BAFF molecule was reformatted as a mouse Fc fusion protein with effector function intact. The protein was expressed and purified as described above and EC50 binding to human BAFF was assessed by ELISA as previously described. […] Mice are then injected i.p. with 100 μg of A07-Fc, 5A7-Fc, or blank control (PBS) on day 0 and again on day 4, 8, and 12 before being be culled on day 15. B cell subset populations in the spleen are analysed by flow cytometry as described above and improvements in B cell depletion are anticipated.

[6] = target: T1, recombinant human BAFF-Fc (Sino …); assay: cell-based or functional assay

T1 sequence (Q9Y275 134-285): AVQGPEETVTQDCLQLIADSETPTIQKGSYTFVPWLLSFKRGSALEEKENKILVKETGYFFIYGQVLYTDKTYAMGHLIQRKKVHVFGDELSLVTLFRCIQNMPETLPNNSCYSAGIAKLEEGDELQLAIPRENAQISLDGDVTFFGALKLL
Sequence of recombinant mouse BAFF (R&D Systems) (Q9WU72 127-309 limits assumed): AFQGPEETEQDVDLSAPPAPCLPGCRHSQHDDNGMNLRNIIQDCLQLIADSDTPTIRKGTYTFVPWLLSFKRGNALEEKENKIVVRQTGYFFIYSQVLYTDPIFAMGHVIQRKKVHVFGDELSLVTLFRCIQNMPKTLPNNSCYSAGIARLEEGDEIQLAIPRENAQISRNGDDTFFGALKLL
T2 sequence (Q9Y275 134-285 limits assumed): as the sequence (Q9Y275 134-285) above
Sequence of recombinant human BAFF-Fc (Sino Biological) (human) (Q9Y275 134-285): as above

BAFFr (positive control, Example 10) (from UniProt Q96RJ3 1-76) (receptor)
IC50 (human), proliferation of mouse splenic B cells [1]: 66.2 nM
IC50 (mouse), proliferation of mouse splenic B cells [2]: 7.06 nM

B1: ID2-101B08 (VNAR)
VNAR: AARVDQTPQTITKETGESLTINCVLRDSNCALSSTLWYRTKSGSRNEESISKGGRYVETVNSGSKSFSLKINDLTVEDSGTYRCKVPRDLLLCKRPRARLPDVYGGGTAVTVNA
notes: Nurse shark VNAR single domain, monomer in periplasmic extract
binding result [3]: binds

B2: A07 formatted as a mouse Fc fusion protein with effector function intact (Fc fusion)
chain: AQAAARVDQTPQTITKETGESLTINCVLRDSNCALSNLYWYRKKSGSTNEESISLGGRYVETVNSGSKSFSLRINDLTVEDSGTYRCKVQLPYDPLTKECILGRMDVYGDGTAVTVNAASGAHHHHHHGADYKDDDDK
notes: also called A07-mFc; not shown: mouse Fc with effector function
EC50 (human BAFF (recombinant) [4]): ~0.632 nM
EC50 (human BAFF (recombinant) [5]): ~0.6 nM

B3: A07 formatted as a human Fc fusion (Fc fusion, not shown: a dimerising Fc or GST)
chain: AQAAARVDQTPQTITKETGESLTINCVLRDSNCALSNLYWYRKKSGSTNEESISLGGRYVETVNSGSKSFSLRINDLTVEDSGTYRCKVQLPYDPLTKECILGRMDVYGDGTAVTVN
IC50 (human), proliferation of mouse splenic B cells [6]: 2.48 nM
IC50 (mouse), proliferation of mouse splenic B cells [2]: 1.95 nM

B4: B07 formatted as a human Fc fusion (Fc fusion, not shown: a dimerising Fc or GST)
chain: AQAAARVDQTPRSVTKETGESLTINCVLRDSICALSSTHWYRKKSGSTNEESISKGGRYVETVNSGSKSFSLRINDLTVEDSGTYRCKVHGGRSTGLCGDVLLAGDVYGGGTAVTVN
IC50 (human), proliferation of mouse splenic B cells [6]: 3.79 nM
IC50 (mouse), proliferation of mouse splenic B cells [2]: 604 nM

— patent publication US20200024354A1 (OSSIANIX, published 2020)
